Source: patent US20220072097A1, “PEPTIDES AND METHODS FOR TREATING NEURODEGENERATIVE DISORDERS” (OHIO STATE INNOVATION FOUNDATION, priority 2016, published 2022)

Assays:
[1] = target: T1, human APP fragment (SEQ ID NO:1) (Homo sapiens, UniProt P05067); experiment: Kinetic ELISA binding of PTPσ fragments to human APP fragment; settings: recombinant proteins, compared with IG1,2
T1 construct: made in house
Method: (§1) FIG. 20 Ligand binding site of PTPσ IG1 domain interacts with APP. Binding of human APP fragment (SEQ ID NO:1) with various PTPσ fragments is measured by kinetic ELISA assay. APP fragment corresponds to SEQ ID NO:1, which is a region between E1 and E2 domains. PTPσ fragments used here include IG1,2 (containing IG1 and IG2 domains), ΔLysIG1,2 (containing IG1 and IG2 domains, with lysine 67, 68, 70, 71 mutated to alanine), IG1-FN1 (containing IG1, IG2, IG3 and FN1 domains), ECD (full extracellular domain of PTPσ containing all 3 IG domains and 4 FN domains). Value shown are mean±SEM, n=3 for each group. ***, p≤0.001, Student t test, comparison with the IG1,2.
(§2) Domain regions were subcloned from human APP695 (construct by Denis Selkoe and Tracy Yang labs purchased through Addgene.com) and PTPσ (constructs from Radu Aricescu lab). Recombinant APP and PTPσ proteins were tested in solid phase ELISA binding assays to define the binding regions on each partner. […] Comparing APP binding strength of difference PTPσ fragments, it appears that inclusion of the fibronectin (FN) domains of PTPσ weakens the interaction with APP, likely due to folding of PTPσ that covers up the ligand binding site in its IG1 domain^61.

PTPσ = experiment: Solid phase ELISA binding of recombinant APP domains to PTPσ; set-up: species or system human; settings: recombinant proteins, solid phase ELISA binding assay
Method: as §1, §2

Molecule	Binding of PTPσ fragment with APP SEQ ID NO:1 [1]	Interaction of APP region with PTPσ (PTPσ)
Full PTPσ extracellular domain: full extracellular domain of PTPσ containing all 3 IG domains and 4 FN domains (protein, UniProt Q13332 30-1282, looked up, extracellular domain, full extracellular domain of PTPσ containing all 3 IG domains and 4 FN domains) extracellular domain: EEPPRFIKEPKDQIGVSGGVASFVCQATGDPKPRVTWNKKGKKVNSQRFETIEFDESAGAVLRIQPLRTPRDENVYECVAQNSVGEITVHAKLTVLREDQLPSGFPNIDMGPQLKVVERTRTATMLCAASGNPDPEITWFKDFLPVDPSASNGRIKQLRSETFESTPIRGALQIESSEETDQGKYECVATNSAGVRYSSPANLYVRELREVRRVAPRFSILPMSHEIMPGGNVNITCVAVGSPMPYVKWMQGAEDLTPEDDMPVGRNVLELTDVKDSANYTCVAMSSLGVIEAVAQITVKSLPKAPGTPMVTENTATSITITWDSGNPDPVSYYVIEYKSKSQDGPYQIKEDITTTRYSIGGLSPNSEYEIWVSAVNSIGQGPPSESVVTRTGEQAPASAPRNVQARMLSATTMIVQWEEPVEPNGLIRGYRVYYTMEPEHPVGNWQKHNVDDSLLTTVGSLLEDETYTVRVLAFTSVGDGPLSDPIQVKTQQGVPGQPMNLRAEARSETSITLSWSPPRQESIIKYELLFREGDHGREVGRTFDPTTSYVVEDLKPNTEYAFRLAARSPQGLGAFTPVVRQRTLQSKPSAPPQDVKCVSVRSTAILVSWRPPPPETHNGALVGYSVRYRPLGSEDPEPKEVNGIPPTTTQILLEALEKWTQYRITTVAHTEVGPGPESSPVVVRTDEDVPSAPPRKVEAEALNATAIRVLWRSPAPGRQHGQIRGYQVHYVRMEGAEARGPPRIKDVMLADAQWETDDTAEYEMVITNLQPETAYSITVAAYTMKGDGARSKPKVVVTKGAVLGRPTLSVQQTPEGSLLARWEPPAGTAEDQVLGYRLQFGREDSTPLATLEFPPSEDRYTASGVHKGATYVFRLAARSRGGLGEEAAEVLSIPEDTPRGHPQILEAAGNASAGTVLLRWLPPVPAERNGAIVKYTVAVREAGALGPARETELPAAAEPGAENALTLQGLKPDTAYDLQVRAHTRRGPGPFSPPVRYRTFLRDQVSPKNFKVKMIMKTSVLLSWEFPDNYNSPTPYKIQYNGLTLDVDGRTTKKLITHLKPHTFYNFVLTNRGSSLGGLQQTVTAWTAFNLLNGKPSVAPKPDADGFIMVYLPDGQSPVPVQSYFIVMVPLRKSRGGQFLTPLGSPEDMDLEELIQDISRLQRRSLRHSRQLEVPRPYIAARFSVLPPTFHPGDQKQYGGFDNRGLEPGHRYVLFVLAVLQKSEPTFAASPFSDPFQLDNPDPQPIVDGEEG	nearly lost binding	
… (protein, recombinant human APP fragment, the region between E1 and E2 domains) AEESDNVDSADAEEDDSDVWWGGADTDYADGSEDKVVEVAEEEEVAEVEEEEADDDEDDEDGDEVEEEAEEPYEEATERTTSIATTTTTTTESVEEVVR		high affinity
